Assay results published in PMC4004541, “PEG-Like Nanoprobes: Multimodal, Pharmacokinetically and Optically Tunable Nanomaterials” (PLoS ONE, 2014).

Experiments:
[1] = Quantum yield of fluorochrome-bearing peptides and PN's; format: physicochemical; conditions: means±1 S.D.
Description: (The p values showing significances are in Figure S2 in File S1). […] PEG attachment increased quantum yields in all cases, but as discussed below the magnitude of PEG generated improvement varied with the fluorochrome chosen. A mechanism for the PEG improvement of quantum yield is fluorochrome shielding, or the blocking of fluorochrome-fluorochrome interactions that result in quenching.
However, the magnitude of these benefits varied with the fluorochrome selected. […] Previous studies indicated PEGylated, fluorochrome-bearing peptides have absorption spectra in PBS similar to their unstacked absorption spectra in methanol. […] It appears that longer wavelength fluorochromes have stronger fluorochrome/fluorochrome stacking interactions, which result in more quenching, which is blocked by PEG and which gives rise to larger increases in quantum yield.

[2] = Probe size (volume) by FPLC calibrated with globular protein standards; format: physicochemical; conditions: for Volume FPLC, globular protein equivalent molecular volume: Superdex 200 10/300GL, 0.05 M sodium phosphate, 0.1 M NaCl (0.1% Tween, pH 7.2), 0.8 ml/min, calibrated with globular protein standards; for Volume FPLC Dia. (diameter): globular protein equivalent volume from FPLC converted to spherical diameter by formula (ref 15)
Description: FPLC chromatograms are shown for PN’s bearing the IR-783 fluorochrome with PEG’s ranging from 2 to 40 kDa ( Figure 2A ). FPLC was calibrated with globular protein standards, and globular protein equivalent molecular volumes (in kDa) were obtained ( Table 1 , column 5). Next, these globular protein equivalent molecular volumes were converted to PN diameters in nm using the relationship: [drawing 1] where M is the molecular weight of a globular protein expressed in daltons. PN diameters ranged from 3.0 to 11.7 nm, which means PN’s can be smaller or larger than albumin (MW = 67 kDa; diameter = 5.4 nm, by the formula above). Thus Table 1 column 5 gives the PN volumes obtained from FPLC expressed in two ways: (i) as the molecular weight in kDa of globular proteins with equivalent volumes, permitting size comparison of PN’s to proteins, and, (ii) as spherical diameters (“Dia.”) in nm, permitting size comparisons of a PN to relative to other nanomaterials. We confirmed the sizes obtained with FPLC by measuring the size of PN(783)11.7 by dynamic light scattering (11.7 nm).
The mass spec of low molecular weight (MW) materials were obtained by MS-ESI Micromass (Waters) and high MW molecules were determined through MALDI-TOF analyses at the Tufts University Core Facility. RP-HPLC (Varian ProStar detector and delivery modules) employed an eluant A (0.1% TFA/water) and eluant B (0.1% TFA and 9.9% water in acetonitrile). Probe size (volume) was determined by FPLC using an ÄKTA Purifier 10 and SuperdexTM 200 10/300GL column (GE Healthcare) with a running buffer of 0.05 M sodium phosphate, 0.1 M NaCl (0.1% Tween, pH 7.2) and flow rate of 0.8 ml/min. Standards (GE Healthcare) were Ferritin, Ribonuclease A, Carbonic Anhydrase, and Conalbumin and Blue Dextran 2000. To obtain probe volumes, Mr (apparent molecular weight based on size exclusion retention) was plotted versus Kav. [drawing 7] , Vt = total volume, Ve = elution volume, Vo = void volume.
PN and peptide characterization: The mass spec of low molecular weights (MW) were obtained by MS-ESI Micromass (Waters) and high MW molecules were determined through MALDI-TOF analyses at the Tufts University Core Facility. RP-HPLC (Varian ProStar detector and delivery modules) employed an eluant A (0.1% TFA /water) and eluant B (0.1% TFA and 9.9% water in acetonitrile). […] Standards (GE Healthcare) were Ferritin, Ribonuclease A, Carbonic Anhydrase, and Conalbumin and Blue Dextran 2000. To obtain probe volumes, Mr (apparent molecular weight based on size exclusion retention) was plotted versus Kav. [picture] , Vt = total volume, Ve = elution volume, Vo = void volume.

HT-29 cells = test: Non-specific binding (NSB) to HT-29 cells by FACS; format: cell-based, human; conditions: 100 μL of nanoprobes (2 μM) added to 100 μl 2% FBS/DPBS, 30 min at 37 °C, means±1 S.D.
Description: We next examined the non-specific binding (NSB) of PN’s to HT-29 cells based on the assumption that NSB minimization will correlate with a desirable minimization of post-IV injection retention. As noted above, after diagnostic drugs generate their added information, retention can only increase the risks of delayed toxicity. The attachment of PEG decreased the non-specific binding (NSB) to HT-29 cells, scored as the percent of cells above the cutoff for unstained cells seen with FACS ( Table 1 , column 7).
PN and peptide binding to cells (effect of PEGylation on NSB): HT-29, a human colon carcinoma cell line, was from the American Tissue Culture Collection and maintained according to their instructions. Cells were seeded on 24-well plates at 5X10^5 cells/well in culture medium (RPMI 1640 with 10% FBS) the day before the assay. The day of assay, medium was removed, wells rinsed twice with DPBS (+Ca, +Mg), and 100 μl of 2% FBS / DPBS (+Ca, +Mg) added. 100 μL of Nanoprobes (2 μM) in DPBS (+Ca, +Mg) was added to cells and incubated for 30min at 37 °C. (Probe concentrations were determined spectrophotometrically (783 nm, extinction coefficient of 314 471 cm^-1 M^-1 for IR-783; 497 nm, extinction coefficient of 68 000 cm^-1 M^-1 for Fluorescein; 545 nm, extinction coefficient of 150 000 cm^-1 M^-1 for Cy3). Cells were detached by Trypsin/EDTA and assayed for fluorescence by FACS (BD 7 laser LSR2 for nanoprobes with IR-783; BD 3 laser LSR2 for nanoprobes with Fluorescein or Cy3).
Figure S4: Effect of PEGylation on non-specific binding to cells by single channel FACS. […] Arrows indicates the cutoff for unstained cells.

[3] = Circulating form of PN's: FPLC of sera of injected mice; format: in vivo; conditions: 20 nmoles IV tail vein, nude mice, FPLC at 783 nm
Procedure: To see if the variable PN size could be translated into tunable pharmacokinetics, it was essential to first establish that PN’s circulated at PEG-determined, pre-injection dimensions. Mice were injected with PN’s and FPLC chromatograms of serum samples, taken at various times post injection ( Figures 2D, 2E and 2F ), compared with pre-injection PN samples. By using PN’s absorbing at 783 nm, chromatograms from the sera of injected mice reflect this PN, since there are no compounds in serum that absorb at this wavelength. […] Similarly, peaks for PN(783)6.1 ( Figure 2E ) and PN(783)4.3 ( Figure 2F ) where identical for pre-injection samples and for nanoprobes in the sera of injected mice. Thus, molecular weight of the PEG chosen determines PN dimensions in vitro and those dimensions are maintained after injection.
At the indicated time, 50 µl of blood was collected with microhematocrit capillary tube (Fisher Scientific) from the tail, and transferred to Eppendorf microcentrifuge tube with anticoagulant (EDTA) coating (Fisher Scientific). Tubes were centrifuged (5000 rpm for 5 min), and the supernatant was injected to the FPLC, a ÄKTA Purifier 10 with SuperdexTM 200 10/300GL column.
At the indicated time, 50 μl of blood was collected with microhematocrit capillary tube (Fisher Scientific) from the tail, and transferred to Eppendorf microcentrifuge tube with anticoagulant (EDTA) coating (Fisher Scientific). Tubes were centrifuged (5000 rpm for 5 min), and the supernatant was injected to the FPLC, a ÄKTA Purifier 10 with SuperdexTM 200 10/300GL column.

[4] = Elimination by whole animal surface fluorescence imaging; format: in vivo; conditions: mice, after injection, n = 6
Procedure: Surface fluorescence images for representative animals are shown and total surface fluorescence is quantified in bar graphs to the right of the image. […] The pharmacokinetics and biodistributions of these PN’s is further analyzed below.
Figure 3 Role PEG in determining elimination by surface fluorescence imaging. A) Animals were injected with unPEGylated peptide and imaged at the times indicated. Bar graph gives whole animal surface fluorescence determined as means and standard deviations, n = 6.
(§1) A Kodak FX multispectral imaging system was used (Carestream Molecular Imaging, Rochester, NY). Excitation at multiple wavelengths (620, 650, 690, 710, 720, 730, 750 and 760 nm) with the emission at 830 nm was setup for IR-783 spectrum; Excitation at multiple wavelengths (420, 440, 460, 480, 510, 520, 530, and 540 nm) with the emission at 600 nm was setup for Cy3 spectrum; Excitation at multiple wavelengths (450, 470, 510, 520, 530, 540, 550, 570, and 590 nm) with the emission at 700 nm was setup for mCherry; with manufacturer’s software to separate (unmix) the IR-783 spectrum, Cy3 spectrum, or mCherry spectrum from skin autofluorescence and chlorophyll fluorescence from food. X-ray images were taken after fluorescence images. […]
as §1, with “Whole animal surface fluorescence imaging: All animal experiments in this work were approved by the Institutional Review Committee of the Massachusetts General Hospital. […]” for “A Kodak FX multispectral imaging system was used (Carestream Molecular Imaging, Rochester, NY).”

Row | Substance | Quant. Yield [1] | Volume FPLC, globular protein equivalent molecular volume [2] [kDa] | Volume FPLC Dia. (diameter) [2] [nm] | Cell NSB: percent of HT-29 cells above the cutoff for unstained cells (HT-29 cells) [%] | Circulating size: FPLC peaks of serum samples after injection versus pre-injection sample [3] | Elimination seen by whole animal surface fluorescence [4]
1 | (DOTA)Lys(PEG 2 kDa)-Cys(IR-783) [PN(783)3.0, PEG-like Nanoprobe: 2 kDa PEG, IR-783 fluorochrome, DOTA peptide] | 0.13±0.02 | 11.2 | 3.0 | 50±1 |  | 
2 | (DOTA)Lys(PEG 5 kDa)-Cys(Cy3) [PN(545)4.3, PEG-like Nanoprobe: 5 kDa PEG, Cy3 fluorochrome, DOTA peptide] | 0.59±0.09 | 35 | 4.3 | 31±1 |  | 
3 | (DOTA)Lys(PEG 5 kDa)-Cys(Fl) [PN(497)4.3, PEG-like Nanoprobe: 5 kDa PEG, fluorescein, DOTA peptide] | 0.59±0.06 | 35 | 4.3 | 0.2±0.1 |  | 
4 | (DOTA)Lys(PEG 10 kDa)-Cys(IR-783) [PN(783)6.1, PEG-like Nanoprobe: 10 kDa PEG, IR-783 fluorochrome, DOTA peptide] | 0.16±0.03 | 100.7 | 6.1 | 14±1 | identical | 
5 | (DOTA)Lys(PEG 20 kDa)-Cys(IR 783) [PN(783)8.4, PEG-like Nanoprobe: 20 kDa PEG, IR-783 fluorochrome, DOTA peptide] | 0.16±0.04 | 262.5 | 8.4 | 14±1 |  | 
6 | (DOTA)Lys(PEG 30 kDa)-Cys(Cy3) [PN(545)10.0, PEG-like Nanoprobe: 30 kDa PEG, Cy3 fluorochrome, DOTA peptide] | 0.61±0.10 | 435 | 10.0 | 15±1 |  | 
7 | (DOTA)Lys-Cys(Cy3) [unPEGylated DOTA peptide with Cy3 fluorochrome on the cysteine side chain] | 0.32±0.07 |  |  | 98±1 |  | 
8 | (DOTA)Lys-Cys(Fl) [unPEGylated DOTA peptide with fluorescein on the cysteine side chain] | 0.50±0.11 |  |  | 0.4±0.1 |  | 
9 | (DOTA)Lys-Cys(IR-783) [unPEGylated DOTA peptide with IR-783 fluorochrome on the cysteine side chain] | 0.053±0.008 |  |  | 95±1 |  | slow and incomplete elimination
